Laboratory results: article PMC6255772

Assays:
[1] = target: recombinant human IGF-2 (human); assay: SPR; competition with immobilized MEDI-573; details: Fc fusion
[2] = target: IGF-TRAP-3.3 (human) (UniProt P08069); assay: SPR; BioRad ProteOn, GLC chip; about 1200 RU IGF-TRAP captured on immobilised goat anti-human Fc antibody; ligands 320-3.95 nM injected in triplicates, 120 s association, 600 s dissociation; PBST, 25 °C; 1:1 binding model
[3] = target: IGF-TRAP-3.1 (human) (UniProt P08069); assay: as above

Row | fold lower affinity than for the IGF ligands [2] [fold] | fold lower affinity than for the IGF ligands [3] [fold] | Substance | IC50 [1] [nM]
1 |  |  | IGF-TRAP-3.3 (from UniProt P08069 31-736; P08069 741-935; P01857 1-328) | 6.44
2 | 1000 | 1000 | human insulin (ligand) | 
